Data taken from the DeepSol protein solubility set.

assay: soluble on expression in E. coli; label from the status in PepcDB or PDB records

Row | Sequence | soluble on expression in E. coli
1 | MSLAKLNVEVFADGADIEQMKAAYKNKEVDGFTTNPSLMAKAGVTDYKSFAEEAVKEIPDASISFEVFADDLETMEKEAEILKQYGDNVFVKIPVVNTKGESTIPLIKKLSADNVRLNVTAVYTIEQVKEITEAVTEGVPTYISVFAGRIADTGVDPLPLMKESVDVAHSKEGVKLLWASCRELFNVIQADEIGADIITCPADVVKKVNTNLGRDINELSVDTVKGFAKDIQSSGLSEGHHHHHH | soluble
2 | MSLAKPIEAHTVSPVNPNAQQTTKTVMNWLAHLPNRTENRVLSGAFGGYSHDTFSMAEADRIRSATGQSPAIYGCDYARGWLETANIEDSIDVSCNGDLMSYWKNGGIPQISLHLANPAFQSGHFKTPITNDQYKKILDSSTVEGKRLNAMLSKIADGLQELENQGVPVLFRPLHEMNGEWFWWGLTSYNQKDNERISLYKQLYKKIYHYMTDTRGLDHLIWVYSPDANRDFKTDFYPGASYVDIVGLDAYFQDAYSINGYDQLTALNKPFAFTEVGPQTANGSFDYSLFINAIKQKYPKTIYFLAWNDEWSAAVNKGASALYHDSWTLNKGEIWNGDSLTPIVEEGHHHHHH | soluble
3 | MSLALELRQQLKLSQQLVMTPQLQQAIRLLQLSRLELVETVQQELLENPFLEEGMDEGAASSASEASSRKDESAPEAYDRELSRNADWEDYLGEFASSSRQAQVRETELPEEMTAFEARYSARPSLEGHLMWQLRLSRLTEDQKGIGETIIGNIGSSGYLQASVEDIAEMCGADASEVIPVLHAVQRFDPVGVASRTPQECLLIQIEMLGYDRDRVLVELVRDHLEDLETRRYKPLLRKFKLDMDDLKEYLDIIQSLDPMPGSSFGGSDPMFVSPDVFVYKYDDEFVIVLNDDGLPHLQLSSLYDQSLAGVTGKDKDFVQEKVRSASWLIKSLYQRQRTLYKVVESIIKYQRGFFEDGVTRLRPLILKDIADDISMHESTVSRITTNKFVATPHGVFELKFFFNSALELDDGSQVGSESVKALIKKLIGEENPKEPLSDERIGEILKEQLQVNIARRTVAKYRTAMNIPSSSKRKEVFEGHHHHHH | soluble
4 | MSLALITLRQRNNKVEVRVFDTGIGIDADKQKAIFTDFYRIQDSDEAGVGLGLGVVRRLTEQMHATIDVSSVKRKGSCFILNMRIGSPVTESNVTFNKVKQTLSGLNVLCVDDKNENLDALETLLTRWEVNVVMANTYESALTLLASNKHPSPDVLLIDYQLDKDQDGLSLIKDIKAQVGKHIPSAIVTALQDQELKETCLSQGIQFLNKPLKPAKLRALLQSLAKQKSEGHHHHHH | not soluble
5 | MSLANLNIFGQEVGADVEGWTTRAFPEKVVLKGNTCRLEPLDRERHGSELFSAYSEAGQKLWTYLPAGPFTNLEEYLEFIKELNETKDTVPFAIINKETERAVGTLCLIRIDEANGSLEVGYVVFSPELQKTIIATEAQFLLMKYVFDDLQYRRYEWKCDSLNGPSRRAAMRLGFKYEGTFRQVVVYKGRTRDTQWFSIIDKEWLRIRKTFEEWLDKTNFENGKQKRGIAAIRESLSNEGHHHHHH | soluble
6 | MSLAPIAQAQHELSISRLIDAPPAKVFRAWTEPQWLMQWWGPHGMTTPECEMQLWAGGLFRTLMRAPDGCEYPNQGVFLEIAAPRRLVFTDAFGPGWVPSDKAFMTAVISFDEEQGKTRYTARAWHWNATDCRAHEEMGFHQGWGESLDRLVEVVTQRMPDLEHHHHHH | soluble
7 | MSLAPPEGNPAAGKVAAGLCRTCHGLNGFARIPIAPHIGGEHPSYIRHQLEAFRSGTRQHEIMSVVAASLSDAQIADLSAWFAMQKIHVALKPGVDPHAAPEACALCHGADGVAVLEDAPNLAGENSVYLETQLKAFRTGKRTHEIMSPIAAELTDAEIRAAADWYAAVQLEIDEGHHHHHH | not soluble
8 | MSLAPRPRILICEDDPDIARLLNLMLEKGGFDSDMVHSAAQALEQVARRPYAAMTVDLNLPDQDGVSLIRALRRDSRTRDLAIVVVSANAREGELEFNSQPLAVSTWLEKPIDENLLILSLHRAIDNMAEGKEGYLTITTDPNSSSVDKLAAALEHHHHHH | soluble
9 | MSLAQDVVVGVSWSNFQEERWKTDEAAIKAELESKGAKYISADAQSSSAKQLSDVESLIAQGATALIILAQDAQAIGPAVQAAADEGIPVVGYDRLIEDSRAFYLTFDNVEVGRMQARAVLEAAPSGRYVMIKGSPTDPNADFLRGGQQEVLQAAIDKGDITIVGEAYTDGWLPANAQRNMEQILTATDNGVDAVVASNDGTAGGVVAALTAQGMEGLPVSGQDGDHAALNRVAKGTQTVSVWKDARDLGRAAARIAVSLAEGTQMNAIGGADDWTSPGGTKMNAMFLEPLPITKDNLSVVVDAGWITQETLCQGVTNGPAPCNEGHHHHHH | soluble
10 | MSLAQFYSAKRRVTTRQIITVKVNDLDSFGQGVARHNGKALFIPGLLPEESAEVIITEDKKQFARARVSRRLNDSPERETPRCPHFGVCGGCQQQHVSIALQQRSKSAALARLMKHEVNDIIAGAPWGYRRRARLSLNCPPDKPLQMGFRKAGSSDIVNVEQCPVLAPQLAALLPRIRACLASLHGTRHLGHVELVQAGSGTLMILRHTAPLSAADKEKLERFSHSEGLSLFLAPFSEILETVSGEAPWYDSHGLRLAFSPRDFIQVNEAVNQQMVARALEWLDVRAEDRVLDLFCGMGNFTLPLATRAASVIGVEGVPALVEKGRENAIRNGLHNVTFFHENLEEDVTKQPWAKNGFDKVLLDPARAGATGVMRHIIKLKPIRIVYVSCNPATLARDSEALVNAGYEVTRLAMLDMFPHTGHLESMVLFERMEGHHHHHH | soluble
11 | MSLAQNMTIKDDFIHAFSSNANEPDWFLDIRRNAFKAYGELDLPFVDKTKITRWNFTKFETFIPFKEGVTNETLPEKVANLVDLDNKEANFYVQMDERPARLQLQQELVDQGVIFTDIISAVKNHPELVKKYFMKDAVQVNEHKLTAFHAALVNGGIFLYVPKNVEVKSPIQAVFVQDKAESPLVNHVLLVADDNSAVTYVENYVTVNNEPKGIVSIVEEVIAEKNARITFGGVDNLASEVTAYVNRRGHIGTDSQIEWALGLMNDGDTINENVTNLMGDGSSADVKTVTVGRGKQTQNVTTRVTHYGKASNGTILSHGVMKERATTIFNGIGHIKHGASKSDAQQESRVLMLSPEARGDANPILLIDENDVVAGHAASVGRVDPLQLFYLMSRGISQKEAERLVIHGFLDPVVRQLPIESVKTMLREVIEGKVREGHHHHHH | soluble
12 | MSLARKKRNPDAEKLAESILNAYQPESVDDMQDALKDVFGPLFEKMLQGELNNHLGYDAHSKEPKEHDNRRNGYGTKTLKTSFGEVAIDVPRDREASFEPELIPKRKRDVSDIEGKVLSMYARGMSQRDIAATVEAIYGFDISHEMISDITDAVLPELEEWQARPLAKCYAFLFVDCMYVTLRENYEAKEYAVYTILGYDLKGNKEILGLWLNQTESKNRWMQVFDELKARGVEDVFFISMDGVSGLEEGAKAIFPSVIVQRCIVHLVRNALRYIPSKDYKEVCRDMKKFYGASSLNAAHAAFGSFQNRWSHYSGAVDVWKRNFAHVEQLFDYGSAIRKIMYTTNAVESVHSSFRKVTKKGAFSNENALLKLLYLRTKELHAKWSGGRIQNWAMVLKQLMINETFSSRMKSMRFTFRNNGRFIQLCVRSKEGHHHHHH | soluble
13 | MSLARVGVVCHVHPDADTIGAGLALALVLDGCGKRVEVSFAAPATLPESLRSLPGCHLLVRPEVMRRDVDLVVTVDIPSVDRLGALGDLTDSGRELLVIDHHASNDLFGTANFIDPSADSTTTMVAEILDAWGKPIDPRVAHCIYAGLATDTGSFRWASVRGYRLAARLVEIGVDNATVSRTLMDSHPFTWLPLLSRVLGSAQLVSEAVGGRGLVYVVVDNREWVAARSEEVESIVDIVRTTQQAEVAAVFKEVEPHRWSVSMRAKTVNLAAVASGFGGGGHRLAAGYTTTGSIDDAVASLRAALGEGHHHHHH | not soluble
14 | MSLASISLPVGGRLLPYELTGRPVPLKGRDAAAFPRVAFAAAHVVADPLADNDPWVTPAIDWERTLAFRHRLWDLGLGVAESMDTAQRGMGLGWPEARELIGRSLSEARGRSGALIACGAGTDHLVPGPNVTIDEILRAYESQIETIEAEGGRIILMASRALAAAAKGPEDYFRVYDRILSQVKEPVIIHWLGEMFDPALEGYWGNADHMAAMKTCLDVIEAHAAKVDGIKISLLSKKKEIVMRRQLPKGVRMYTGDDFNYAELISGDEEGYSDALLGIFDAIAPVASAALEALGGGRNGEFFELLDPTVPLSRHIFKAPTRFYKTGVVFLAYLNGLQDHFAMIGGQQSARSLVHLAELFRLADRAGVLQDPELAAGRMRRVLAVNGVAEGHHHHHH | soluble
15 | MSLASTIMSQEVSWTDILEKHPALRWIKPIPEDWEIFPKHLCAFESFLYVAVGQEVRSLDCRLLKHKNEASHKNFYKKLFNPELDFMIEQICLSKNGRFLAVVGKSKIVILGLRSKLSEQNPLAESVSNFGESVNNFSNSEHQENGTNSLKLSEVTICSVAVINPSSQIVSVRFHPLGKSGRSLVVLTETSLLLYEAGNGVLMPDYEIPLKLTHQASNSFDADVDLHIPTAFCFSNVSQGWGVFTIYILTRGGDVFSVCPVMPANAMIPQDVLKQIRLILTKKEDDADAENHRRNVHWITKLLGEAALANDLSTSEGHHHHHH | soluble
16 | MSLATEIVENMFCVNAPAGSGKTTKIKSMIVNHKIKHPIDNILCITYTKRAAEELNKDFNEEGIHISTIHSFLHKFLKIYFCKTEMKDLYFEMFEDLIKESIENKEEKEHIVTRNQKYIEKHGCLSVESIKANIDAIYYNESSNNHLYTGGLAHDSLLLFAEKVFDKFPKIKMRLTQKYQSIFIDEYQDSAASVLRMFYKACLNTKSNLYFLGDKMQQIYKNYDGSFEEELKTLNTDIKLDINHRSIPDIVSVLNNIYNDKGFKQNPSKKNLDIKPDHPPRIIMCDNIQERLKRECSIYPDALLLFLLNQQKFASIGARELYKQFSHLERYSHAKQLSATDVLSDNTSENTDPLLKLLFIVGEVVDYYKKSNVGSIIQIFKANRKLFDMGIGTITSHRDRIDLTKLLKQLYEDYHKEISISEFLTLLRGCNEGHHHHHH | not soluble
17 | MSLATIKDVAQRAGLSISTVSRYLNHHPYISEDKKIKIQQAMDELDYVPNLVAMQLRSNKSYTIGIIVPRITNPYFAYLIDAIDKKIKGTPYHTLIMQTYNDKEEELRLLNMFKQRQIAGVIMGALENDIEVLETYTKYGPIILSADQSMQSDKVKIIHTTQRQTTYDAIQYLINKGYRNIAYCTDNNYYDHCFNKPRNVGFRVAMKDNGLDIRNEWIFNNVHTIEDGEQIGKILLRQEQLPDAIFTGSDEVALGLMHFMTAHQIDIPNQIAIMGYDNQPISSLLKIPLSTVNQPVNDIGMQLINYLLALLEETEFEINDNVLKLNIVERQSTEGHHHHHH | soluble
18 | MSLATKLRRVRKSPPEGWDLIEPTLEQFEAKMREAETEPHEGKRKTEINWPIFRIHHQRSRYVYDMYYKKAEISRELYEFCLTAKFADAALIAKWKKQGYENLCCVKCVNTRDSNFGTACICRVPKSKLDAERVIECVHCGCHGCSG | not soluble
19 | MSLATLLHIDSSVFPSAASASRAVAETFRTAWQEQHPDGTVIYRDLSANPVPHITADAHTAGFADPATHTPGQAAAFAEREKLIAELEQADAVLIGAPMYNYAIPSTLKAWLDNVILMGRTAANENSKVTGTPVTVIASRGGSYAPGTPREPYEYVQNYLKAVLSDALGLELEFIVPELTMAAHNPAMSELVPLAEASRAKAHEDAAAKAKELADRFAAEGHHHHHH | soluble
20 | MSLAVLGDVARLADVSTATVSRVYNEPDKVSPSVRERVLQAAAALNWIPNAAGRALASTRTHIAGAIIPTLDDQVFASQVAGMQAVFAERGITLFLGCSNYDPAQALIQVRAMLARGVEVIAIVGEAHPPELFDALKQARVPYAITYAYREGSPHHCIGFDNRAAFVAIAEHLLALGHRTFAAVIQPARDNDRVQARVAGIREALERHGIAVRPSHLHEGPATIAFGRQSLRAIWQGADERPTAIICGNDQLAIGVLLEAAELGIKVPQQLSVTGFDDVAIAQQIHPSLTTVRVDTAEIGRRAARYLLDVLDGKEAAESGLVQPELMVRESTAEGHHHHHH | soluble
